A short description of the data set: label from the status in PepcDB records.
In the case of “MPRSTAASAPLTVRPFSLVPLMAAYMACTMSMMAFVSLIGPISRALHLETWHAGAAVTVSGVIWMLLARPWGQASDRFGRRRVLLLGTAGFTLAYWALCLFIDLSLQSLPSVAMAFLGLMLGRGLIGAFYAAIPVGGFALIADNVEPQHRARAMATLGAANAVGLVLGPAVAALLARYSLSLPFYAMAVLPLLAFLVLRYQLPRQELHLAQAPTRVRLGDPRLRRPMVVAFVAMLCVSVAQITVSFYALDRLHMSPADAAQTAGVALAMVGVALICAQLVVRKLEWPPLRMIRYGALLSALGYAGSMLVDSAWGLWLAFFVSAAGMGGVFPSFSALAANAVEASEQGATAGSIGAAQGLGVVIGPMAGSLIYAIEPRLPYLLAAVLLVLIAIWPAPQPKDL”, the protein production entry is given as “failed”.

In the case of “MPRTQKNDNFVDKSFTVMADIILKILPTNKKAKEAFVYYRDGMSAQAEGEYAEALEYYEEALTLEEDTNDRGYILYNMGLIYASNGDHDKALELYHQAIELNPRLPQALNNIAVIYHYQGEKAKETGDHDGGEALFDQAADYWIRAIRMAPNNYIEAQNWLKTTGRMQIDVFF”, the protein production result is recorded as “failed”.

Turning to “MPSDNQRLALLPVGRTGRLDRPSLLLTGGSGVLGRALIDELSPDFDLLCLRRDTPLRDPRVRELQGDLVAPRLGLSPLAWHELALEVDVVLHCAAETDWRTPPQDITRTNLRGADTVLDLAARADAPLYLVSTAFVANTPTEEDRRHFPGAAAYLDSMARAEQMTREAGVPGAIVRPSVVMGDSGSGRIAGRQGLTRMIGSMVLGQAPVLPGAPATRIDMVPRDYVSRAIGDLVRGGVADGEYWLTAGQEAMGLREFADVCADVAVRHGLPRPQRPRFIPVDAVHRLLLPMLAGTSLPASLRRRLEYYAELLLVFQRELPFDTSLGEPDCGTRPTRTDLRAALVRNAESWAGNRAGLLSPNRSAATAPMEVAS”, the protein production entry was “failed”.

“MPSEAFRRHRAYRENKLQPLVSVLICAYNVEKYFAQSLAAVVNQTWRNLDILIVDDGSTDGTLAIAQRFQEQDGRIRILAQPRNSGLIPSLNIGLDELAKSGGGGEYIARTDADDIAAPDWIEKIVGEMEKDRSIIAMGAWLEVLSEEKDGNRLARHHEHGKIWKKPTRHEDIADFFPFGNPIHNNTMIMRRSVIDGGLRYNTERDWAEDYQFWYDVSKLGRLAYYPEALVKYRLHANQVSSKYSIRQHEIAQGIQKTARNDFLQSMGFKTRFDSLEYRQIKAVAYELLEKHLPEEDFERARRFLYQCFKRTDTLPAGAWLDFAADGRMRRLFTLRQYFGILHRLLKNR”: the protein production result was “failed”.

Turning to “MPSHTDENWELAIQTPAITDRSLAAGLAYAMGSRVNGISFDAATGLLMGKVRGTGPQPYSTSAKLVRKPSGWSCTVGICNCPVRKDCKHVAALLFTAEDHPTIRAQLLSQAPGIQTSRVGSGQQGGSARPAWEQALNRLITKPGTAPSAAGIPLALQFEVEEPAAHFSYTGRRDPMRSVRQLKARPVMMGAKGKWIRGDVSWNNLSYVSFRREFNEVHVEWLQTFLAAHGSSNGRQQPSGAMWLSLNDFAAKNLWTLLAEATKAGIPLIHSAGSEPVRVETQPAVVGLSLARLATDPDTAKHEAPDGGLQLAPSVTLGGEAVDPGSVGFLGKPANGIFFTHSGDSLPGVPQQKNLITLAPMEGGISDELLEFVMDGDTLQIPAEDESRFLTSFYPKLRQSTPVQAADESVELPTLAVPTLSLLANYGNDHKVRLHWEWHYKSGTLVTSQPLWRHPDDRGYRDDLEEARILESLGRPWDVVPALAESATGGWGAPRIAASAELSGLDTLAFTEEVLPALKDLPDVVVETSGDIADYREAAEAPVVSISTKETASGDWFDLGIVITLEGEPVSFAAVFSALAAGMSRMLLPSGAYFSLDLPELHQLRALIDEARSLQDNPDNKDGTLQISRFQAGLWDELAQLGIVDEQAAAWREAVGGLLDDGVTGLPLPAGLNAELRPYQLEGFNWLSFLYKHSLGGVLADDMGLGKTVQAIALICAAKDLAAETAAAAQGDASEVVPRAPFLVVAPTSVVSNWAAEAQRFAPGLVVRTVGETFAKSGMAPAEALAGADVVITSYALFRIDYDAYASFQWAGLMLDEAQFVKNHQSKAYQCARKLPARFKLAITGTPLENNLMEFWALTSIVAPGLFPSPKRFAENYQKPVEKNGDSAQLGKLRRRVRPLMMRRTKEQVIKDLPPKQEQILEVVLNPRHQKVYQTHLQRERQKILGLIDDVNKNRFTIFQSLTLLRQLSLDASLVDSSLSGVRSSKLDVLFEQLEDLISEGHRALIFSQFTGFLGKVRERLDAEGVEYCYLDGSTRNRGDVVSEFKNGAAPVFLISLKAGGFGLNLTEADYVFLLDPWWNPASEAQAVDRTHRIGQARNVMVYRLVAKDTIEEKVMALKAKKSQLFADVMEGDALAGGSLTADDLAALFAE”, the protein production result is given as “failed”.

Regarding “MPSPSGSSTLSKPAPRFASIGSPYFGIMLAIMAVVLILSNIGASKGVVLGPIITDGGFFLFPLAYILGDVMSEVYGFKVARKAIITSFALSVFASLCYWIIIVLPGFNDEYGTAKQAAIEGALGPVPLIVLGSLLAFLAGQTINSWILVKMKARTGEKSLWARLMGSSVVGEFVDTLIFCSIAASVIGITDFGSFLNYVLVGFVYKTAVEFLFVPVTVLVVGWIKKREPSYGVVAA”, the protein production entry was “failed”.

As to “MPSSGQLYGDEERELTPTPAIPEEGVYEVKYSNRRTNVVRLLPNGFQERKLRRLANLSAKLFNEVNFERRQQFFHEGKVNIEETYKKYYEKYKVILGVNAQAVLNKNNEAWSSFFSLLKLKKEGKLPPHMNHVSPPGYWKDREAGKRKQILVIRQDRYKVDAENHKLILKDFDMEIDFIGRLKWYGKQGRLEIIFDETRNAWYAHIPIEVGVEETKAGKKSKHVVKGERKSIQISKPKGNKVASIDLGINVIASVVVNDGTWLLYKGVRTKEDYFYFQKRIAEVQSLADRTRNIGEYDAYLELLREKRRLFKKLTRRLTHLYRNLASHLIETLYELGVSTIYLGYPFNIVQEKGNKFTVNMWSYRKLMESIELKAQEYGMKVFEVVEYNTSKYCAYHDVEVKRNPRGVINCPLGHKLHSDLNGALNILKKALGVIVNAVKKPLSFIVDHNRVAPIKGCNPLEHHHHHH”, the protein production result is “failed”.

As to “MPSSTTVPTRRGLVSGPSSSDAHGDMPAVSVIMNCLNCERDLAEAIGSVFAQTFDDWEIVFWDNGSTDRSAEIAQGFGERVRYFRATETVPLGAARNLAIAKARGEFIAFLDCDDVWLPEKLERQVALFRANPRVGLVCTDTVMFTGAKDLNRLFEHAHPARGHVFRELMTTQWISMSSAVIRRNALDGMDHWFDESLNVCEEADVFYRIAWDWELDHVDAPLTRWRVHGANTTFRKFGQFAEETLRILDKHRAMYPGYDERYADLVALLRRRAAFQRAVALWREGRGAEARATIAPFDASPKFRLFRLATYLPGALFDPLARLYFALPAFLRRLEHHHHHH”, the protein production entry is given as “failed”.

With “MPTFLAALLTGLFNLCKSKLGYFVATAFVWLGINWGSYHFVISPLVEQLYTYVDSVGTAGGRFGELALRALGLLNFDRALTMIISAYVSRFAMLNGRLYLFKRGYGVAPPASPKHEPFIPPAG”, the protein production entry is listed as “failed”.

“MPTINQLIRYGRKPKKKKSKAPALQGNPQKRGVCIKVSTMTPKKPNSALRKIARVRLSNGIEVTAYIPGIGHNLQEHSVVLVRGGRVKDLPGVRYKIIRGALDAAGVEGRRQSRSKYGAKRPKDQKK”: the protein production result is listed as “failed”.

For “MPTKTLRIPTTDGQADAFAAFPDHSERYPGVLMYADGFGIRPVLREMALELAGHGYYVLVPNSFYRHGPAPLVELPEYIGEGIRPAVFAQLMPLIEAHTAERVLSDADAYLRFLTTQPEVGAGPVAVTGYCIGGLYAMRTAAAHPDQVAAVAAFHGPVGVDGANLFSKLTAQVHLGHAEGDMTPEALGELNQALDAAGVGYTSEIYPGTIHGFTMSDTDAYSAFGLKRHWDRLLPLLDRTL”, the protein production result is “failed”.

For the sequence “MPTKTYSEEFKRDAVALYENSDGASLQQIANDLGINRVTLKNWIIKYGSNHNVQGTTPSAAVSEAEQIRQLKKENALQRARTRHPAESCLEHHHHHH”, the protein production entry is recorded as “not failed”.

On to “MPTLGFRFRAHTDEQTLRALKAQLKLACEVYNTLRWADIYFYQRDGKGLTQTELRQLALDLRKQDDEYKQVYSQVVQQIADRYYEARQRFFEGLARFPKEKKPHKYYSLVYPQYGWKILQVREIRKGSKKKLITLKLSNLGVFKVIVHRDFPLDKVKRVVVKLTRSERIYITFVVEGYEFPKLPNTGKVVAIDVGVEKLLVTSDSEYFPNLRPLEKALWKVKHLHRELSRKKFLSNNWFKAKVKLARAYEHLKNLRTDLYMKLGKWFAEHYDVVVMEDIHVKQLIGKSLRSLRRRLSDVAFSELRDLIKYQLEKYGKKLILVNPAYTSKTCARCGYVKEDLSLSDRVFVCSNCGWIADRDYNASLNILRGSGSERSLVPVELRPLPVPALRYWHGRAVKLEHHHHHH”, for which the protein production entry is “failed”.
